Laboratory results reported in US20250011413A1 (MCMASTER UNIVERSITY, published 2025).

Legend:
[1] = target: T1, PF4/heparin complex (human PF4 complexed with heparin) (human, UniProt P02776 32-101); experiment: competition EIA, scFv 50 µg/mL; competitor HIT-negative sera antibodies, n=10
T1 construct: Multimeric complex of PF4 with heparin (not a protein); In the EIAs: PF4 captured on biotinylated heparin on streptavidin plates; In the SRA: platelets with 0.2 U/mL heparin; also called PF4 and heparin complexes
T1 sequence: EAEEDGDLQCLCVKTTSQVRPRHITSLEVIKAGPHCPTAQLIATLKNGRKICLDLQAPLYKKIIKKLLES
Description: (§1) Inhibitory PF4/heparin IgG-specific Streptavidin Enzyme Immunoassay (EIA). The binding activity of wildtype and mutant scFv antibodies to PF4/heparin complexes was measured using an inhibitory PF4/heparin IgG-specific EIA with a streptavidin-biotin capture system. Before performing this protocol, 96-well NUNC Maxisorp plates (ThermoFisher) were coated with 10 μg/mL streptavidin for 24 h. Plates were then blocked with 3% bovine serum albumin (BSA) in phosphate buffered saline (PBS) for 2 h at room temperature. Plates were then coated with 1 U/mL biotinylated-heparin for 1 h followed by 30 μg/mL PF4 for 1 h. Increasing concentrations of wildtype or mutant scFv were added and incubated for 1 hr at room temperature. Without removing wildtype or scFv, HIT patient sera in a 1:50 dilution or full-length KKO (2 μg/mL) was then incubated for 1 h at room temperature. After washing, alkaline phosphatase-conjugated anti-human or anti-mouse IgG (Jackson Immuno Research Laboratories, Inc., West Grove, PA) was added at a 1:4000 dilution and incubated for 1 h temperature. For detection, 1 mg/mL p-nitrophenylphosphate (PNPP, Sigma-Aldrich) substrate dissolved in 1 mol/L diethanolamine (DEA) buffer (pH 9.6) was added. The optical density (OD) was measured at 2 min intervals for 30 min at 405 nm (OD₄₀₅ₙₘ) using a BioTek 800 TS plate reader (BioTek Instruments Inc., Winooski, VT) to determine if anti-PF4/heparin antibody binding was inhibited. Results were reported as a decrease in OD (absorbance at 405 nm) from baseline levels.
Sera (n=10) from confirmed HIT-negative patients (EIA-positive/SRA-negative) containing anti-PF4/heparin antibodies were then used in the same EIA with scFv constructs to determine if antibody binding was decreased in this cohort (Table 5).

[2] = target: T1, PF4/heparin complex (human PF4 …); experiment: as above; remark: listed apart in the source
[3] = target: T1, PF4/heparin complex (human PF4 …); experiment: competition EIA, scFv 50 µg/mL; competitor HIT-positive sera antibodies, n=10
Description: as §1
Inhibiting HIT-Positive (EIA+/SRA+) HIT-Negative (EIA+/SRA−) antibody binding: Sera (n=10) from confirmed HIT-positive patients (EIA-positive/SRA-positive) containing anti-PF4/heparin antibodies were used in a modified streptavidin-biotin based anti-PF4/heparin IgG EIA (streptavidin anti-PF4/hep EIA) with scFv at 50 μg/mL. On average, antibody binding to PF4/heparin was reduced in the presence of scFv.

[4] = target: T2, Human PF4 (CXCL4), biotinylated, without heparin (human, UniProt P02776 32-101, biotinylated with EZ-link-Sulfo-NHS-LC-Biotin (sites not given)); experiment: BLI (Octet), biotinylated PF4 without heparin on streptavidin sensors, scFv at 1 µg/mL, 1:1 model, mean ± s.d. [cont.) b]
T2 construct: Immobilised on streptavidin biosensors for BLI; also called PF4 alone; platelet factor 4
T2 sequence: T1 sequence
Description: (§2) BLI experiments were performed using wildtype scFv, mutant B, mutant C, mutant D, mutant E, and mutant F at 1 μg/mL. Binding was measured against immobilized biotinylated PF4 on streptavidin biosensors. b) Table showing kinetic data of wildtype and mutant scFv, including binding responses and association and dissociation rates. All data was analyzed based on a 1:1 homogenous ligand binding model using Octet® User Software version 3.1.
(§3) The Octet-QK Red 96 (FortéBio, Menlo Park, CA) instrumentation was used to conduct all BLI experiments. A 96-well microtiter plate (black, flat-bottom) was used to hold 200 μL per well of either sample or buffer. Pre-coated streptavidin biosensor tips (FortéBio) were hydrated in phosphate buffered saline (PBS) containing 1% bovine serum albumin (BSA, Sigma-Aldrich) before performing all kinetic assays. Each step was performed at an operating temperature of 23° C. with agitation at 1000 rpm. Streptavidin tips were first equilibrated in PBS+1% BSA to establish a baseline. […] The PF4-coated tips were then dipped into PBS+1% BSA for 13 minutes to re-establish a baseline. Tips were then incubated in an analyte solution containing half-fold dilutions of wildtype scFv (4.0, 2.0, 1.0, 0.5, 0.25 μg/mL in PBS+1% BSA) for 10 minutes to measure association. For mutant scFv association, tips were incubated in an analyte solution containing 200 μL of each mutant and wildtype scFv at a final concentration of 1 μg/mL in PBS+1% BSA. Antibody dissociation steps were performed by dipping sensors in wells containing PBS+1% BSA for 56 minutes. The following negative controls included in these kinetic experiments were also measured: 200 μL of buffer to replace both the antigen and scFv and 200 μL buffer replacing scFv only. Each experiment was performed with PF4 or with PF4/heparin as the immobilized antigen.
(§4) BLI experiments were performed to evaluate binding responses and affinities of wildtype and mutant scFv. Biotinylated PF4 alone or complexed with heparin was immobilized on streptavidin biosensors and used to capture wildtype scFv.

[5] = target: T2, Human PF4 (CXCL4), biotinylated, …; experiment: BLI (Octet), biotinylated PF4 without heparin on streptavidin sensors, scFv 1 µg/mL
Description: as §3
(§5) BLI experiments were performed to evaluate binding responses and affinities of wildtype and mutant scFv. Biotinylated PF4 alone or complexed with heparin was immobilized on streptavidin biosensors and used to capture wildtype scFv. Half-fold serial dilutions of wildtype scFv ranging from 0.25 μg/mL to 4 μg/mL were used to determine the optimal concentrations for future experiments PF4 (PF4 FIG. 3; PF4/heparin FIG. 4).

[6] = target: T2, Human PF4 (CXCL4), biotinylated, …; experiment: BLI (Octet), biotinylated PF4 without heparin on streptavidin sensors, scFv 1 µg/mL, 1:1 model
Description: as §3, §5

[7] = target: T1, PF4/heparin complex (human PF4 …); experiment: BLI (Octet), biotinylated PF4/heparin on streptavidin sensors, scFv 1 µg/mL
Description: as §3, §5

[8] = target: T1, PF4/heparin complex (human PF4 …); experiment: cell-based or functional assay
[9] = target: T1, PF4/heparin complex (human PF4 …); experiment: BLI (Octet), biotinylated PF4/heparin on streptavidin sensors, scFv 1 µg/mL, 1:1 model
Description: as §3, §5

[10] = target: T1, PF4/heparin complex (human PF4 …); experiment: competition EIA, scFv 50 µg/mL; competitor HIT-positive sera antibodies, n=10; remark: listed apart in the source
[11] = target: T1, PF4/heparin complex (human PF4 …); experiment: BLI (Octet), biotinylated PF4/heparin on streptavidin sensors, scFv at 1 µg/mL, 1:1 model, mean ± s.d.
Description: as §2, with “PF4/heparin complexes” for “PF4”, “Octet®)” for “Octet®”
as §3, §4

- mean OD405nm of bound serum IgG (+ scFv) [1]: 1.24 OD405nm
- mean % inhibition of serum antibody binding [2]: -42.5%
- mean OD405nm of bound serum IgG (+ scFv) [3]: 0.799 OD405nm
- koff [4]: 0.000215 s⁻¹
- kon [4]: 16900 M⁻¹ s⁻¹
- average binding response (wavelength shift) [5]: 0.0399 nm
- Kd [6]: 1.66 µM
- average binding response (wavelength shift) [7]: 0.159 nm
- fold higher binding response than wildtype scFv [7]: 2 fold
- % inhibition of 14C-serotonin release (SRA), HIT-Positive Patient #1 serum, scFv 50 µg/mL [8]: 14.4%
- % inhibition of 14C-serotonin release (SRA), HIT-Positive Patient #1 serum, scFv 75 µg/mL [8]: 22.2%
- % inhibition of 14C-serotonin release (SRA), HIT-Positive Patient #2 serum, scFv 50 µg/mL [8]: 15.4%
- % inhibition of 14C-serotonin release (SRA), HIT-Positive Patient #2 serum, scFv 75 µg/mL [8]: 21.8%
- % inhibition of 14C-serotonin release (SRA), HIT-Positive Patient #3 serum, scFv 50 µg/mL [8]: -1.2%
- % inhibition of 14C-serotonin release (SRA), HIT-Positive Patient #3 serum, scFv 75 µg/mL [8]: 9.6%
- % inhibition of 14C-serotonin release (SRA), HIT-Positive Patient #4 serum, scFv 50 µg/mL [8]: 3.3%
- % inhibition of 14C-serotonin release (SRA), HIT-Positive Patient #4 serum, scFv 75 µg/mL [8]: 5.6%
- % inhibition of 14C-serotonin release (SRA), HIT-Positive Patient #5 serum, scFv 50 µg/mL [8]: 22.2%
- % inhibition of 14C-serotonin release (SRA), HIT-Positive Patient #5 serum, scFv 75 µg/mL [8]: 6.9%
- Kd [9]: 0.00381 µM
- fold increased affinity against wildtype scFv [9]: 10 fold
- mean % inhibition of serum antibody binding [10]: 50.6%
- koff [11]: 0.000477 s⁻¹
- kon [11]: 85800 M⁻¹ s⁻¹
B1: Mutant C scFv, scFv(S50N, Y53H) (scFv)
scFv: DIQMIQSQKFMSTSVGDRVTVTCKASQNVGTNVAWYQQKPGQSPNALIYNASHRYSGVPDRFTGSGSGTDFTLTITNVQSEDLADYFCQQYNSYPLTFGTGTKLDLKGGGGSGGGGSGGGGSVQLQQSGAELVKPGASVKLSCKASGYTFTNYFIYWVKQRPGQGLEWIGEINPRNGDTDFNEKFESRATLTVDKSSSTAYMQLSSLTSEDSAIYYCTRSPYGNNYGFTYWGQGTLVTVSA
notes: VL-linker-VH; histidine-tagged, from E. coli BL21; also called Mut C; not shown: histidine tag from the pADL-22c vector
